# Test results from patent US20170174769A1 (Regeneron, published 2017).
# Like-named read-outs stand apart in the source and are kept apart here.
# T1: extracellular domain of human KLB expressed with C-terminal HA and hexahistidine tags (human, UniProt Q86Z14 1-996)
# T1 construct: also called hKLB-HA-6His; hKLB-HA-6his
# T1 sequence: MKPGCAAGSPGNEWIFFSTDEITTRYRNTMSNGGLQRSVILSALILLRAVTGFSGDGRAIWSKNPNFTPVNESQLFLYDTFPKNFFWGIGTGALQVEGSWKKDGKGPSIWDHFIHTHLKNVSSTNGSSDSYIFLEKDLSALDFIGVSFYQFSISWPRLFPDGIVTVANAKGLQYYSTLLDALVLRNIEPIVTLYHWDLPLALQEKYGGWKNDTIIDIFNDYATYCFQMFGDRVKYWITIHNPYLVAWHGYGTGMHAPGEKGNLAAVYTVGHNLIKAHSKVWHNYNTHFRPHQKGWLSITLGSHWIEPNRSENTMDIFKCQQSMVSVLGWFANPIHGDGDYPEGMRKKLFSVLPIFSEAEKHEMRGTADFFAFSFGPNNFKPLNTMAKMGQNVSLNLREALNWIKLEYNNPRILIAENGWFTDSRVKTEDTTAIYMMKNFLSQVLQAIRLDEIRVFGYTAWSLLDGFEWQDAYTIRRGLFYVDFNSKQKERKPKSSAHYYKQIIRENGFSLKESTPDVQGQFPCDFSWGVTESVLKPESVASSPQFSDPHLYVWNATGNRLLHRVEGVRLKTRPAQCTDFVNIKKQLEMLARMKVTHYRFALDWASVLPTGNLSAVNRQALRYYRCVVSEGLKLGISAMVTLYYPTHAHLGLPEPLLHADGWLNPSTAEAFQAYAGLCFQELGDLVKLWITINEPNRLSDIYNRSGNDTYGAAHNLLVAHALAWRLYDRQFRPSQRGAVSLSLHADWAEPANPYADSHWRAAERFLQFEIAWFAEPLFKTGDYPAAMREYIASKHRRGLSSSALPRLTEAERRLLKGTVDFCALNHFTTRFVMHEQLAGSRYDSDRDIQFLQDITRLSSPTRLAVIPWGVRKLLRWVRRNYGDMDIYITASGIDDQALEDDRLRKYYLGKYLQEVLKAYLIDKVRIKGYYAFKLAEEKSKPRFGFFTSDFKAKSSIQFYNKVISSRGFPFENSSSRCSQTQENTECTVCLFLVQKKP
# T2: extracellular domain of human FGFR1c expressed with C-terminal V5 and hexahistidine tags (human, UniProt P11362 22-376)
# T2 construct: also called hFGFR1c-V5-6His
# T2 sequence: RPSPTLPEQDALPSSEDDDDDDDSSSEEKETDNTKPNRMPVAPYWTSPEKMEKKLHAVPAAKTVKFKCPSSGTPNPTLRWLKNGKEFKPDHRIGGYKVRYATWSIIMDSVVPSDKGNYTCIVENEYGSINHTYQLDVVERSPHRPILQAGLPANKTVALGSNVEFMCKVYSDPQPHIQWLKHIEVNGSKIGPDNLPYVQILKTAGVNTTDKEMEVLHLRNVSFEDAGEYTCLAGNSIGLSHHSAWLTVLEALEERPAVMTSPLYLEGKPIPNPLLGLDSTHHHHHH
# Assays:
# [1] = molecular target: mouse KLB and mouse FGFR1c co-expressed on HEK293/mKLB/mFGFR1c/SRE-Luc cells (mouse); assay: cell-based or functional assay
# [2] = molecular target: T1, extracellular domain of human KLB …; assay: SPR, mAb captured, 37 C
# Outline: (§1)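 Anti-KLB/FGFR1c mAbs were captured on amine-coupled rabbit anti-mouse or mouse anti-human Fc surfaces, per antibody Fc. Analyte flowed in HEPES pH 7.4, 0.15M NaCl, 3mM EDTA, 0.05% P20; association monitored 3.5 to 4 minutes, dissociation 8-12 minutes.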
# [3] = molecular target: T2, extracellular domain of human FGFR1c …; assay: SPR, mAb captured, 37 C
# Outline: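 KD values derive from kinetic rate constants obtained by fitting real-time sensorgrams to a 1:1 binding model. Antibodies were held on anti-Fc capture surfaces matched to mouse or human Fc, with tagged receptor domains passed over in HBST, pH 7.4.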
# [4] = molecular target: T1, extracellular domain of human KLB …; assay: SPR, mAb captured, 25 C
# Outline: as §1
# [5] = molecular target: T2, extracellular domain of human FGFR1c …; assay: SPR, mAb captured, 25 C
# Outline: as §1
# [6] = molecular target: T3, human KLB and human FGFR1c co-expressed on HEK293/hKLB/hFGFR1c/SRE-luc cells (human, UniProt Q86Z14 1-1044; P11362 22-822); assay: cell-based or functional assay
# [7] = molecular target: T3, human KLB and human FGFR1c co-expressed …; assay: cell-based or functional assay; remark: listed apart in the source
# [8] = molecular target: cell-surface human FGFR1c (amino acids 1-731 of NP_075594) with cell-surface human KLB on … (human, UniProt P11362 22-822); assay: cell-based or functional assay
# Chain of cell-surface human FGFR1c (amino acids 1-731 of NP_075594) with cell-surface human KLB on … (P11362 22-822): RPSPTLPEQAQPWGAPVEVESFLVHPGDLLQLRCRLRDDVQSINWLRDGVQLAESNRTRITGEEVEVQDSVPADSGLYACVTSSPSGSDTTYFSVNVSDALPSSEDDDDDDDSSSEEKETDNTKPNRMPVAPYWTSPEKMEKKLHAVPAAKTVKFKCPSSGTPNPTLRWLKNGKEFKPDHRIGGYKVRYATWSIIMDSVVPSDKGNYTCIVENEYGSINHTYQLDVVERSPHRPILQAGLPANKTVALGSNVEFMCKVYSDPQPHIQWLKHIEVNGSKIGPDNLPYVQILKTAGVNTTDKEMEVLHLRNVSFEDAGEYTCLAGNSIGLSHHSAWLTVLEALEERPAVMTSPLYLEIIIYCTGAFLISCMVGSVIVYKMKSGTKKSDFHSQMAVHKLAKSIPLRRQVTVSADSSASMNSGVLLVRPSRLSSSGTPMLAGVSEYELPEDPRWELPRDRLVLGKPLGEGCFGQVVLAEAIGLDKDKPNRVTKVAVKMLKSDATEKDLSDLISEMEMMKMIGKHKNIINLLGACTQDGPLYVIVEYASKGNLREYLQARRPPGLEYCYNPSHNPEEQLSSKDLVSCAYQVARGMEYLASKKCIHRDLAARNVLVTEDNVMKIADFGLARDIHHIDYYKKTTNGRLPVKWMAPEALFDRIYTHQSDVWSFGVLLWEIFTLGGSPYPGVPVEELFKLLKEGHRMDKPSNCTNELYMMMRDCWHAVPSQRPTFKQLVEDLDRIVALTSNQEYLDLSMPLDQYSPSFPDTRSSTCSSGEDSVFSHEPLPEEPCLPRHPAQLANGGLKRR
20 nM hKLB-HA-6His Bind (RU) [2],180 nM hFGFR1c-V5-6His Bind (RU) [3],20 nM hKLB-HA-6His Bind (RU) [4],180 nM hFGFR1c-V5-6His Bind (RU) [5],binding result [5],"EC50, SRE-luc activation without ligand [6]",Maximum Activation (%) without ligand [6],"IC50, inhibition of 1 nM 6His-hFGF21 [7]",Maximum Inhibition (%) [7],% Activation [8],"EC50, SRE-luc activation [8]",Binder,further results
-1.9 RU,0.4 RU,-0.2 RU,2.9 RU,no binding (tested: 180 nM),8.9 nM,3%,,,,,"H1H8898P (antibody, V domains shown, H1H Fc prefix (human Fc)) VH: QVQLVESGGGLVKPGGSLRLSCAASGFIFSDYYMSWIRQAPGKGLDWISYISPSGSTIYYADSVKGRFTISRDNAKNSLYLQMNSLRADDTAVYYCARTGIQLWSVYFDYWGQGTLVTVSS VL: EIVMTQSPATLSVSPGERATLSCRASQSVGSNLAWYQQKPGQAPRLLIYGASTRANGIPARFSGSGSGTEFTLTISGLQSEDFAVYYCQQYNNWPTFGQGTKLEIK",Maximum Activation (%) without ligand [1]: 2%; Maximum Inhibition (%) of 0.8 nM mFGF21 [1]: 29%
93.6 RU,0.5 RU,64.1 RU,-1.3 RU,,0.2 nM,1%,0.19 nM,74%,0.8%,150 pM,"H2aM8092N (antibody, V domains shown, mouse IgG2 Fc (H2aM prefix); also called H2M8092N) VH: QVQLQESGPGLVKPSETLSLTCTVSGGSISSYYWSWIRQPPGKGLDWIGHIYYSGTTYYNPSLKSRVSISLDTSKNQFSLKLSSVTAADTAVYYCARHLRGYSSGREFDYWGQGTLVTVSS VL: DIQMTQSPSSLSASVGGRVSLTCRASQSIFSYLNWYQQKPGKAPKLLIYAASNLQSGVPSRFSGSGSGTDFTLTISSLQPEDFATYSCQQSYNIPYTFGQGTKLEIK","EC50, SRE-luc activation without ligand [7]: 290 pM; Maximum Activation (%) [7]: 0.6%; Kd [2]: 0.412 nM; koff [2]: 8e-05 s⁻¹; kon [2]: 194000 M⁻¹ s⁻¹; t1/2 [2]: 144 min; Kd [4]: 0.383 nM; koff [4]: 5.56e-05 s⁻¹; kon [4]: 145000 M⁻¹ s⁻¹; t1/2 [4]: 208 min"
2.6 RU,1.6 RU,0.3 RU,1.3 RU,no binding (tested: 180 nM),17 nM,2%,2.2 nM,36%,1.4%,> 10000 pM,"H1H8900P (antibody, V domains shown, H1H Fc prefix (human Fc)) VH: QVQLVESGGGVVQPGRSLRLSCVASGFTFSSYGMHWVRQAPGKGLEWVAVISFDGSNKYYADSVKGRFTISRDNSKNTLYLQMNSLRPADTAVYYCAKDRSNYYYFGMDVWGQGTTVTVSS VL: DIVMTQTPLSLPVTPGEPASISCRSSQSLLDSDDGNTYLDWYLQKPGQSPQLLIYTLSYRASGVPDRFSGSGSGTDFTLKISRVEAEDVGVYYCMQRIEFPLTFGGGTKVEIK",binding result [4]: no binding (tested: 60 nM)
